In the experiment the target is recombinant histone H3K4me3, P68431. Briefly: co-immunoprecipitation with anti-H3K4me3 antibodies, quantified anti-GFP immunoblot. Particulars: chain shown with the change, 0.3-M NaCl extracts of XP-C fibroblasts, recombinant H3K4me3 2 µg, n = 3, read off a plot.

B1: wild-type XPC-GFP fusion, Q01831 W690S (protein)
chain: MARKRAAGGEPRGRELRSQKSKAKSKARREEEEEDAFEDEKPPKKSLLSKVSQGKRKRGCSHPGGSADGPAKKKVAKVTVKSENLKVIKDEALSDGDDLRDFPSDLKKAHHLKRGATMNEDSNEEEEESENDWEEVEELSEPVLGDVRESTAFSRSLLPVKPVEIEIETPEQAKTRERSEKIKLEFETYLRRAMKRFNKGVHEDTHKVHLLCLLANGFYRNNICSQPDLHAIGLSIIPARFTRVLPRDVDTYYLSNLVKWFIGTFTVNAELSASEQDNLQTTLERRFAIYSARDDEELVHIFLLILRALQLLTRLVLSLQPIPLKSATAKGKKPSKERLTADPGGSSETSSQVLENHTKPKTSKGTKQEETFAKGTCRPSAKGKRNKGGRKKRSKPSSSEEDEGPGDKQEKATQRRPHGRERRVASRVSYKEESGSDEAGSGSDFELSSGEASDPSDEDSEPGPPKQRKAPAPQRTKAGSKSASRTHRGSHRKDPSLPAASSSSSSSKRGKKMCSDGEKAEKRSIAGIDQWLEVFCEQEEKWVCVDCVHGVVGQPLTCYKYATKPMTYVVGIDSDGWVRDVTQRYDPVWMTVTRKCRVDAEWWAETLRPYQSPFMDREKKEDLEFQAKHMDQPLPTAIGLYKNHPLYALKRHLLKYEAIYPETAAILGYCRGEAVYSRDCVHTLHSRDTSLKKARVVRLGEVPYKMVKGFSNRARKARLAEPQLREENDLGLFGYWQTEEYQPPVAVDGKVPRNEFGNVYLFLPSMMPIGCVQLNLPNLHRVARKLDIDCVQAITGFDFHGGYSHPVTDGYIVCEEFKDVLLTAWENEQAVIERKEKEKKEKRALGNWKLLAKGLLIRERLKRRYGPKSEAAAPHTDAGGGLSSDEEEGTSSQAEAARILAASWPQNREDEEKQKLKGGPKKTKREKKAAASHLFPFEQL
With B1, the percent of parent is 72 % WT.

B2: wild-type XPC-GFP fusion, Q01831 D748K (protein)
chain: MARKRAAGGEPRGRELRSQKSKAKSKARREEEEEDAFEDEKPPKKSLLSKVSQGKRKRGCSHPGGSADGPAKKKVAKVTVKSENLKVIKDEALSDGDDLRDFPSDLKKAHHLKRGATMNEDSNEEEEESENDWEEVEELSEPVLGDVRESTAFSRSLLPVKPVEIEIETPEQAKTRERSEKIKLEFETYLRRAMKRFNKGVHEDTHKVHLLCLLANGFYRNNICSQPDLHAIGLSIIPARFTRVLPRDVDTYYLSNLVKWFIGTFTVNAELSASEQDNLQTTLERRFAIYSARDDEELVHIFLLILRALQLLTRLVLSLQPIPLKSATAKGKKPSKERLTADPGGSSETSSQVLENHTKPKTSKGTKQEETFAKGTCRPSAKGKRNKGGRKKRSKPSSSEEDEGPGDKQEKATQRRPHGRERRVASRVSYKEESGSDEAGSGSDFELSSGEASDPSDEDSEPGPPKQRKAPAPQRTKAGSKSASRTHRGSHRKDPSLPAASSSSSSSKRGKKMCSDGEKAEKRSIAGIDQWLEVFCEQEEKWVCVDCVHGVVGQPLTCYKYATKPMTYVVGIDSDGWVRDVTQRYDPVWMTVTRKCRVDAEWWAETLRPYQSPFMDREKKEDLEFQAKHMDQPLPTAIGLYKNHPLYALKRHLLKYEAIYPETAAILGYCRGEAVYSRDCVHTLHSRDTWLKKARVVRLGEVPYKMVKGFSNRARKARLAEPQLREENDLGLFGYWQTEEYQPPVAVKGKVPRNEFGNVYLFLPSMMPIGCVQLNLPNLHRVARKLDIDCVQAITGFDFHGGYSHPVTDGYIVCEEFKDVLLTAWENEQAVIERKEKEKKEKRALGNWKLLAKGLLIRERLKRRYGPKSEAAAPHTDAGGGLSSDEEEGTSSQAEAARILAASWPQNREDEEKQKLKGGPKKTKREKKAAASHLFPFEQL
Turning to B2, the percent of parent (P = 0.0087 vs WT) worked out at 55 % WT.

B3: wild-type XPC-GFP fusion, Q01831 D748K; E755K (protein)
chain: MARKRAAGGEPRGRELRSQKSKAKSKARREEEEEDAFEDEKPPKKSLLSKVSQGKRKRGCSHPGGSADGPAKKKVAKVTVKSENLKVIKDEALSDGDDLRDFPSDLKKAHHLKRGATMNEDSNEEEEESENDWEEVEELSEPVLGDVRESTAFSRSLLPVKPVEIEIETPEQAKTRERSEKIKLEFETYLRRAMKRFNKGVHEDTHKVHLLCLLANGFYRNNICSQPDLHAIGLSIIPARFTRVLPRDVDTYYLSNLVKWFIGTFTVNAELSASEQDNLQTTLERRFAIYSARDDEELVHIFLLILRALQLLTRLVLSLQPIPLKSATAKGKKPSKERLTADPGGSSETSSQVLENHTKPKTSKGTKQEETFAKGTCRPSAKGKRNKGGRKKRSKPSSSEEDEGPGDKQEKATQRRPHGRERRVASRVSYKEESGSDEAGSGSDFELSSGEASDPSDEDSEPGPPKQRKAPAPQRTKAGSKSASRTHRGSHRKDPSLPAASSSSSSSKRGKKMCSDGEKAEKRSIAGIDQWLEVFCEQEEKWVCVDCVHGVVGQPLTCYKYATKPMTYVVGIDSDGWVRDVTQRYDPVWMTVTRKCRVDAEWWAETLRPYQSPFMDREKKEDLEFQAKHMDQPLPTAIGLYKNHPLYALKRHLLKYEAIYPETAAILGYCRGEAVYSRDCVHTLHSRDTWLKKARVVRLGEVPYKMVKGFSNRARKARLAEPQLREENDLGLFGYWQTEEYQPPVAVKGKVPRNKFGNVYLFLPSMMPIGCVQLNLPNLHRVARKLDIDCVQAITGFDFHGGYSHPVTDGYIVCEEFKDVLLTAWENEQAVIERKEKEKKEKRALGNWKLLAKGLLIRERLKRRYGPKSEAAAPHTDAGGGLSSDEEEGTSSQAEAARILAASWPQNREDEEKQKLKGGPKKTKREKKAAASHLFPFEQL
As to B3, the percent of parent (P = 0.0147 vs WT) is 46 % WT.

B4: wild-type XPC-GFP fusion, Q01831 E755K (protein)
chain: MARKRAAGGEPRGRELRSQKSKAKSKARREEEEEDAFEDEKPPKKSLLSKVSQGKRKRGCSHPGGSADGPAKKKVAKVTVKSENLKVIKDEALSDGDDLRDFPSDLKKAHHLKRGATMNEDSNEEEEESENDWEEVEELSEPVLGDVRESTAFSRSLLPVKPVEIEIETPEQAKTRERSEKIKLEFETYLRRAMKRFNKGVHEDTHKVHLLCLLANGFYRNNICSQPDLHAIGLSIIPARFTRVLPRDVDTYYLSNLVKWFIGTFTVNAELSASEQDNLQTTLERRFAIYSARDDEELVHIFLLILRALQLLTRLVLSLQPIPLKSATAKGKKPSKERLTADPGGSSETSSQVLENHTKPKTSKGTKQEETFAKGTCRPSAKGKRNKGGRKKRSKPSSSEEDEGPGDKQEKATQRRPHGRERRVASRVSYKEESGSDEAGSGSDFELSSGEASDPSDEDSEPGPPKQRKAPAPQRTKAGSKSASRTHRGSHRKDPSLPAASSSSSSSKRGKKMCSDGEKAEKRSIAGIDQWLEVFCEQEEKWVCVDCVHGVVGQPLTCYKYATKPMTYVVGIDSDGWVRDVTQRYDPVWMTVTRKCRVDAEWWAETLRPYQSPFMDREKKEDLEFQAKHMDQPLPTAIGLYKNHPLYALKRHLLKYEAIYPETAAILGYCRGEAVYSRDCVHTLHSRDTWLKKARVVRLGEVPYKMVKGFSNRARKARLAEPQLREENDLGLFGYWQTEEYQPPVAVDGKVPRNKFGNVYLFLPSMMPIGCVQLNLPNLHRVARKLDIDCVQAITGFDFHGGYSHPVTDGYIVCEEFKDVLLTAWENEQAVIERKEKEKKEKRALGNWKLLAKGLLIRERLKRRYGPKSEAAAPHTDAGGGLSSDEEEGTSSQAEAARILAASWPQNREDEEKQKLKGGPKKTKREKKAAASHLFPFEQL
As for B4, the percent of parent amounted to 85 % WT.

The values are drawn from publication PMC5673894.
